Test results: patent US20230184787A1 (NORDIC BIOSCIENCE A S, published 2023)

T1: non-sense peptide YRDDLKKLLET (Homo sapiens)
T1 construct: also called NBH-225
T1 peptide: YRDDLKKLLET

T2: elongated peptide VKLGHPDTLNQ (Homo sapiens)
T2 construct: also called N-extended elongated version
T2 peptide: VKLGHPDTLNQ

T3: truncated peptide LGHPDTLNQ (Homo sapiens)
T3 construct: also called N-truncated shortened version
T3 peptide: LGHPDTLNQ

T4: human neutrophil elastase (human, UniProt P08246 30-247, limits assumed)
T4 construct: also called HNE
T4 sequence (looked up): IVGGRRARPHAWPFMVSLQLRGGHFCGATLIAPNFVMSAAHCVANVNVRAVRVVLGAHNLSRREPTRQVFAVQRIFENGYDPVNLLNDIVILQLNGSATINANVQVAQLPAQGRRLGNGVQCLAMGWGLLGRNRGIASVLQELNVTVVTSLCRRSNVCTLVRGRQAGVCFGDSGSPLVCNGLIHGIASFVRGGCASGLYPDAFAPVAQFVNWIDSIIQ

T5: full-length human calprotectin (heterodimer of S100A9 and S100A8) (Homo sapiens, UniProt P06702 1-114; P05109 1-93)
T5 construct: also called intact full-length human calprotectin; purified calprotectin
T5 sequence (looked up) 1: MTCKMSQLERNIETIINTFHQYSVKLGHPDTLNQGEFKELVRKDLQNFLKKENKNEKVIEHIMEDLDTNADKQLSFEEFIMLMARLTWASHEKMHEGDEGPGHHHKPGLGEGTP
T5 sequence (looked up) 2: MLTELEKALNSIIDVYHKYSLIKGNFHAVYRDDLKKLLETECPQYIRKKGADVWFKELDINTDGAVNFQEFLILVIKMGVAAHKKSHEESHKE

B1: selection peptide KLGHPDTLNQ (peptide)
peptide: KLGHPDTLNQ
notes: also called calibrator peptide
B2: CPa9-HNE antibody (antibody, mouse IgG1, kappa, V domains shown)
VH: QVQLQQSGPELVKPGASVKMSCKASGYTFTDHVINWVRQRTGQGLEWIGEIYPGSGSTYYNEKFKGKATLTADKSSNTAYMQLSSLTSEDSAVYFCAWFAYWGQGTLVTVSA
VL: DIVMTQSPSSLSVSAGEKVTMSCKSSQSLLNSGNQKNYLAWYQQKPGQPPKLLIYGASTRESGVPDRFTGSGSGTDFTLTISSVQAEDLAVYYCLNDHSYPYTFGGGTKLEIKR
notes: also called monoclonal antibody targeting CPa9-HNE

Experiments:
CPa9-HNE antibody = target: B2; test: competitive ELISA: standard (calibrator) peptide in solution competes with …-K-Biotin on streptavidin plates for the CPa9-HNE antibody; mean of the standard curves
[1] = target: T1, non-sense peptide YRDDLKKLLET; test: competitive ELISA (CPa9-HNE assay), peptide specificity test, FIG. 2B
Procedure: (§1) No. 11940279, Hvidovre, Denmark) were coated with a biotinylated antigen ([…]-K-Biotin (SEQ ID NO: 27)) by incubation with the biotinylated antigen for 30 minutes at room temperature. Unbound biotinylated coater antigen was discarded, and the wells were washed with washing buffer (25 mM TRIZMA, 50 mM NaCl, 0.036% Bronidox L5, 0.1% Tween 20) using a standardized ELISA plate washing machine (BioTek® Instruments, Microplate washer, ELx405 Select CW, Winooski, USA). Samples were diluted in incubation buffer containing 1% bovine serum albumin (Sigma Aldrich, cat. No. a-7906, 98 purity) to maintain protein stability and for blocking. Samples and controls were added to the wells and incubated with the primary monoclonal antibody against the HNE-generated neo-epitope (CPa9-HNE), at 20° C. for 1 hour and agitated at 300 rpm. Unbound primary antibody and sample were discarded, and the wells were washed with washing buffer. Subsequently, HRP conjugated AffiniPure Rabbit anti-mouse IgG secondary antibodies (Jackson cat. No 315-035-045) was added to the wells and incubated for 1 hour at 20° C. Unbound secondary antibody was discarded by washing the wells in washing buffer. Chemiluminescence substrate (Roche Diagnostic's cat. No. 11582950001) was added to the well (100 μl/well), and the plates were incubated for 3 minutes at room temperature before reading the plates. Finally, an ELISA reader (VersaMAX; Molecular Devices, Wokingham Berkshire, UK) was used to quantify the relative light units (RLU) emitted from the plates […]. A standard curve was plotted using a 4-parametric mathematical fit model.
(§2) A monoclonal antibody (also referred to herein as the CPa9-HNE antibody) targeting CPa9-HNE (the HNE-generated N-terminus neo-epitope of NBH-222) was developed and used in an ELISA protocol as described above (also referred to hereinafter as the CPa9-HNE assay), and the specificity of this antibody when used in this immunoassay was tested against the selection peptide and the elongated peptide, truncated peptide and non-sense peptide (having the sequences set out in Table 1).

[2] = target: B1; test: as above
Procedure: as §1, §2

[3] = target: T2, elongated peptide VKLGHPDTLNQ; test: as above
Procedure: as §1, §2

[4] = target: T3, truncated peptide LGHPDTLNQ; test: as above
Procedure: as §1, §2

[5] = target: T4, human neutrophil elastase; test: competitive ELISA (CPa9-HNE assay) on in vitro cleavage samples and controls, FIG. 2C
Procedure: (§3) Samples were diluted in incubation buffer containing 1% bovine serum albumin (Sigma Aldrich, cat. No. a-7906, 98 purity) to maintain protein stability and for blocking. Samples and controls were added to the wells and incubated with the primary monoclonal antibody against the HNE-generated neo-epitope (CPa9-HNE), at 20° C. for 1 hour and agitated at 300 rpm. Unbound primary antibody and sample were discarded, and the wells were washed with washing buffer. Subsequently, HRP conjugated AffiniPure Rabbit anti-mouse IgG secondary antibodies (Jackson cat. No 315-035-045) was added to the wells and incubated for 1 hour at 20° C. Unbound secondary antibody was discarded by washing the wells in washing buffer. Chemiluminescence substrate (Roche Diagnostic's cat. No. 11582950001) was added to the well (100 μl/well), and the plates were incubated for 3 minutes at room temperature before reading the plates. Finally, an ELISA reader (VersaMAX; Molecular Devices, Wokingham Berkshire, UK) was used to quantify the relative light units (RLU) emitted from the plates […]. A standard curve was plotted using a 4-parametric mathematical fit model. […]

[6] = target: T5, full-length human calprotectin …; test: as above
Procedure: as §3

IC50 (CPa9-HNE antibody) | binding result [1] | binding result [2] | binding result [3] | binding result [4] | binding result [5] | binding result [6] | Binder
0.0783 µg/mL | – | – | – | – | – | – | B1
– | no binding | binds | no binding | no binding | no binding | no binding | B2
